According to the supplement of paper PMC9732359:
± gives the uncertainty stated by the source.

Test: protein stability index of a GFP-peptide fusion (yeast GPS) (PSI 1-4); higher = more stable; sorted into four equal gates, so the index is relative within each strain
Procedure, shortened: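 Each library plasmid carries Cherry plus GFP with a tiled 17-residue yeast protein peptide fused downstream, and the pooled library was carried in yeast. Mid-log cultures in leucine-free medium were sorted into four equal gates by GFP/Cherry ratio. Reads from Illumina sequencing of PCR-amplified plasmids from each gate were assigned to strains by barcodes. Per peptide, the protein stability index was computed as the summed products of gate read frequency and gate number.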

Sequence | protein stability index (doa10∆) | protein stability index (pdr5∆) | protein stability index (san1∆) | protein stability index (ubr1∆)
MDQDNNNHNDSNRLHPP [GRR1] | 2.73 ± 0.062 | 2.79 ± 0.062 | 2.69 ± 0.064 | 2.9 ± 0.04
LQQICRVRNKDIRKFLD [RPL9A] | 2.13 ± 0.074 | 2.2 ± 0.074 | 2.04 ± 0.1 | 2.31 ± 0.054
TVASSKVGYTLPSHIIS [RPL4A] | 3.19 ± 0.076 | 3.02 ± 0.052 | 3.09 ± 0.035 | 3.25 ± 0.043
NAVTAAAANNNIKPVEQ [GAL11] | 2.66 ± 0.064 | 2.66 ± 0.051 | 2.77 ± 0.062 | 2.84 ± 0.039
DGTAQLSNNKTDEEEQL [YJR042W/NUP85] | 2.77 ± 0.25 | 3.16 ± 0.14 | 3.27 ± 0.15 | 3.18 ± 0.098
DLIRSESMLHLSIWIKN [IRR1] | 1.62 ± 0.057 | 2.01 ± 0.05 | 1.51 ± 0.098 | 1.8 ± 0.04
SSPSHIELVVTEKEEAV [RPL17A] | 2.08 ± 0.051 | 2.74 ± 0.045 | 2.3 ± 0.059 | 2.08 ± 0.039
VSKEGLYQLVDIRDSSC [YMR129W/POM152] | 2.83 ± 0.099 | 2.92 ± 0.084 | 2.7 ± 0.06 | 2.84 ± 0.05
TANAKHTSSNSREIAQP [SMB1] | 2.91 ± 0.14 | 2.94 ± 0.099 | 3.19 ± 0.07 | 3.33 ± 0.17
PTGKEEGDGAKAAISFG [YJL041W/NSP1] | 3.37 ± 0.11 | 3.04 ± 0.1 | 3.35 ± 0.1 | 3.38 ± 0.069
LKIQFILSTTLDPTDDE [SIN4] | 2.04 ± 0.1 | 2.33 ± 0.081 | 2.12 ± 0.067 | 2.81 ± 0.099
LRNKLIESNKLAGVLYE [RRP6] | 2.72 ± 0.16 | 3.04 ± 0.21 | 2.79 ± 0.28 | 2.73 ± 0.18
TSIGIKCNDGVVFAVEK [PRE10] | – | – | 2.61 ± 0.29 | –
TPEKDLFIGLFTRPLFV [YCS4] | 1.54 ± 0.084 | 1.32 ± 0.079 | 1.96 ± 0.27 | 1.45 ± 0.096
VDEPMTSAVELGAIEQI [YJL039C/NUP192] | 3.41 ± 0.3 | 3.66 ± 0.17 | 3 ± 0.16 | 2.87 ± 0.28
GSLACDTADEAKTLIPS [RPB4] | 3.06 ± 0.1 | 3.42 ± 0.086 | 3.33 ± 0.051 | 3.17 ± 0.071
ATRHVLMRQGVLGIKVK [RPS3] | 2.07 ± 0.096 | 2.27 ± 0.073 | 1.93 ± 0.095 | 2.07 ± 0.056
APPLENENSNCLLSIPK [YML103C/NUP188] | 1.86 ± 0.058 | 1.92 ± 0.057 | 1.65 ± 0.16 | 1.71 ± 0.059
ADDEKSDEEEVTEMSNN [BRR2] | 3 ± 0.06 | 3.02 ± 0.042 | 2.84 ± 0.054 | 3.1 ± 0.048
ALIENWAADSVSSRVRG [FAS1] | 3.45 ± 0.12 | 3.1 ± 0.14 | 2.84 ± 0.082 | 3.34 ± 0.075
TLIDLVKHSPGAIKPFT [ECM29] | 2.16 ± 0.2 | 2.93 ± 0.15 | 1.95 ± 0.2 | 2.92 ± 0.099
CSPKLPVEKVQRIAKND [DLS1] | 2.86 ± 0.29 | 3.32 ± 0.12 | 3.17 ± 0.13 | 3.4 ± 0.12
KQINHQGEEEELIALNL [RPB4] | 3.34 ± 0.15 | 3.59 ± 0.13 | 3.2 ± 0.076 | 3.42 ± 0.11
APLAKVVFRDPYKYRLR [RPL2A] | 2.93 ± 0.098 | 3.16 ± 0.1 | 3.07 ± 0.06 | 3.13 ± 0.062
EYNEDSRLCTPIPVQGE [RPN13] | – | – | 2.27 ± 0.14 | 3.11 ± 0.28
SSASPSALTSPTDSSKI [SIR3] | 2.71 ± 0.048 | 3.08 ± 0.055 | 2.87 ± 0.045 | 2.72 ± 0.033

Sequence | protein stability index (doa10∆) | protein stability index (pdr5∆) | protein stability index (san1∆) | protein stability index (ubr1∆)
MLGHYLGEFSITYTPVR [RPS15] | 2.27 ± 0.19 | 2.83 ± 0.073 | 2.04 ± 0.16 | 2.86 ± 0.18
MKSLLTELSNKETTIEK [YIL149C/MLP2] | 3.23 ± 0.13 | 3 ± 0.12 | 3.41 ± 0.07 | 3.25 ± 0.062
VAFVCSPISDSRDELIR [RPN10] | 2.42 ± 0.093 | 2.56 ± 0.11 | 1.67 ± 0.12 | 2.34 ± 0.099
KGYLQRGDDGESYAYLA [CDC53] | 3.17 ± 0.057 | 3.17 ± 0.055 | 3.21 ± 0.033 | 3.25 ± 0.044
GRRKTWKRQNTLSLWRY [RPL15A] | 3.21 ± 0.1 | 3.11 ± 0.11 | 2.57 ± 0.085 | 3.37 ± 0.057
TSRVTGILLLDSLIQLA [YJL039C/NUP192] | 1.85 ± 0.062 | 1.77 ± 0.056 | 1.59 ± 0.094 | 1.95 ± 0.048
RREELQQRIREIGLLPE [SMC3] | 3.34 ± 0.12 | 3.06 ± 0.2 | 3.21 ± 0.075 | 3.45 ± 0.066
DPPNEGDPFDYKAQADT [RPB3] | 3.18 ± 0.13 | 3.42 ± 0.12 | 3.34 ± 0.12 | 3.12 ± 0.073
QPVNINLDSSITQDGKF [YMR129W/POM152] | 2.92 ± 0.098 | 3.18 ± 0.084 | 3.07 ± 0.048 | 3.04 ± 0.059
AITISNSIDINYKGLPK [SMC1] | 2.48 ± 0.063 | 2.83 ± 0.054 | 2.54 ± 0.073 | 2.98 ± 0.039
NLDFDPRDVIKGKDFEI [FAS1] | 3.47 ± 0.25 | 2.9 ± 0.29 | 3.32 ± 0.11 | 3.46 ± 0.1
LMEASDAFRVHICGICG [RPB2] | 2.08 ± 0.062 | 1.83 ± 0.098 | 2.23 ± 0.11 | 2.5 ± 0.072
IETEFLLFTVKLKGLMK [IRR1] | 3.12 ± 0.14 | 3.06 ± 0.22 | 2.98 ± 0.12 | 3.28 ± 0.12
KVCECVCMHCGKLLLDE [RPO21] | 2.96 ± 0.082 | 2.97 ± 0.073 | 2.88 ± 0.087 | 2.96 ± 0.047
PLLDIVLKADRSWNEPS [YML103C/NUP188] | 2.02 ± 0.15 | 2.86 ± 0.26 | – | 3.12 ± 0.11
KPQRTNTLRMKHGTYDK [RPB2] | 2.74 ± 0.081 | 2.85 ± 0.061 | 2.84 ± 0.062 | 2.88 ± 0.044
FNTLVRIMSTRCMMAAQ [DIS3] | 1.53 ± 0.07 | 1.73 ± 0.058 | 1.61 ± 0.076 | 1.58 ± 0.036
AENMLEELRGQQTEHET [SMC4] | 3.02 ± 0.13 | 2.97 ± 0.2 | 3.32 ± 0.069 | 3.4 ± 0.1
YNTRKNAVTAAAANNNI [GAL11] | 2.19 ± 0.046 | 2.52 ± 0.044 | 2.67 ± 0.05 | 2.46 ± 0.029
QSQQAQPSDVMFNDLNS [MED2] | 3.1 ± 0.057 | 3.37 ± 0.078 | 3.44 ± 0.063 | 3.11 ± 0.095
TRDETVSLIKKYKLISR [YML103C/NUP188] | 2.48 ± 0.1 | 2.56 ± 0.13 | 2.51 ± 0.11 | 2.41 ± 0.12
DGAGGDNEVQRTMLELI [RPT1] | 3.6 ± 0.16 | 2.95 ± 0.13 | 3.44 ± 0.11 | 3.36 ± 0.066
DPLLSLYNFLHKYVLTL [RGR1] | 2.5 ± 0.043 | 2.12 ± 0.07 | 2.49 ± 0.05 | 2.12 ± 0.046
FGINTNTTKTADTKAPT [YLR335W/NUP2] | 3.4 ± 0.085 | 3.41 ± 0.073 | 3.19 ± 0.07 | 3.5 ± 0.048
KAIPTFSFGKPFFSSNT [YIL149C/MLP2] | 3.07 ± 0.048 | 3.14 ± 0.046 | 2.94 ± 0.035 | 3.011 ± 0.028
LKKFRESLVHSALCILK [BRR2] | 3.21 ± 0.12 | 2.1 ± 0.073 | 2.86 ± 0.078 | 2.97 ± 0.066
